Each block holds one substance with its values, some of them ahead of it.
Columns and labels:
[1] = target: A1/A3-C1-C2 heterodimer of thrombin-cleaved FVIII (human) (UniProt P00451); assay: optical biosensor, purified protein after thrombin cleavage
[2] = target: wild-type factor VIII (FVIII WT) (human) (UniProt P00451); assay: cell-based or functional assay
[3] = target: IR8 (90/b/73 R336I/R562K/R740A; del795-1688/Arg336Iso/Arg562Lys/Arg740Ala) (human) (UniProt P00451); assay: cell-based or functional assay
Chain of IR8 (90/b/73 R336I/R562K/R740A; del795-1688/Arg336Iso/Arg562Lys/Arg740Ala) (human) (P00451 other isoform, or with tags, fused parts or gaps R336I R562K R740A R562K R740A R336I R562K R740A R562K R740A, form in doubt): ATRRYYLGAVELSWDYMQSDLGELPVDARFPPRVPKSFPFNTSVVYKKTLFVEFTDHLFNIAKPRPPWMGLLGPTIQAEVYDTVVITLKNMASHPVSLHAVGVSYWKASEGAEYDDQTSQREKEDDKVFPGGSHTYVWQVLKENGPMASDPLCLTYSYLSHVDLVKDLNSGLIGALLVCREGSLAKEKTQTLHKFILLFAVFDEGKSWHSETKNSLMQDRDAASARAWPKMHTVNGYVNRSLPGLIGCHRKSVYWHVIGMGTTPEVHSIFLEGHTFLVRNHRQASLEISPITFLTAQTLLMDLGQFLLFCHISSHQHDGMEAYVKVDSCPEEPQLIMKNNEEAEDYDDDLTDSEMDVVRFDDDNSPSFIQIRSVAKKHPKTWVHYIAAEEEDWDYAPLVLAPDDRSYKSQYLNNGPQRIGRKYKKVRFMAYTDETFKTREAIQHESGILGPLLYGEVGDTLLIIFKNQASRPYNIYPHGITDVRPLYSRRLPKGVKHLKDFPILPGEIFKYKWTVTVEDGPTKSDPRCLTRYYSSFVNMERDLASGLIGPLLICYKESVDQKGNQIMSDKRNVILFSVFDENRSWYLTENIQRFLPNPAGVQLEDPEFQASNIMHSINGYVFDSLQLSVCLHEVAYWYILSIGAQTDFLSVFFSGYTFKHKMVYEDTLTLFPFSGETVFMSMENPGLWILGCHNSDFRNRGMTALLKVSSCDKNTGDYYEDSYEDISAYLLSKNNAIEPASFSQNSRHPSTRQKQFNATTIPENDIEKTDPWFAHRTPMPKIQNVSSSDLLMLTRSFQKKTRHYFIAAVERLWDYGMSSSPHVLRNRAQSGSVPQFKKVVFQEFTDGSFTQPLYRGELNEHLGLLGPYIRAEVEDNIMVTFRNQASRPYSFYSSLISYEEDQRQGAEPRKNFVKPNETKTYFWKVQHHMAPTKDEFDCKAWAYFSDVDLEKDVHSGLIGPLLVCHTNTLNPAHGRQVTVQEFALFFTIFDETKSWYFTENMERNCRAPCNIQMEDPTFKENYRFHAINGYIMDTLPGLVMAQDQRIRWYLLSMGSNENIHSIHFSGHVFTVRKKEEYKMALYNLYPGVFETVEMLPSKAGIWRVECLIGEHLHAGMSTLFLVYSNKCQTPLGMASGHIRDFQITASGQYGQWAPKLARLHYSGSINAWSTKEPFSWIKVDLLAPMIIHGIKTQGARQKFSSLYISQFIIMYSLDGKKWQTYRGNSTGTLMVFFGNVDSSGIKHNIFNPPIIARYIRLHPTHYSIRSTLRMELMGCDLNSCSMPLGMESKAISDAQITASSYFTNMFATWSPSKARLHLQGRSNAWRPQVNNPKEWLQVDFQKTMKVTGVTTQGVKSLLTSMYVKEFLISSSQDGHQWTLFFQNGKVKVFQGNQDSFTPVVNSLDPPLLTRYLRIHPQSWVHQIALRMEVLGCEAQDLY

[4] = target: IR8 (90/b/73 R336I/R562K/R740A; del795-1688/Arg336Iso/Arg562Lys/Arg740Ala) (human) (UniProt P00451); assay: optical biosensor; IR8 captured on immobilized Mab NMC-VIII/5, vWF added at 10 nM
[5] = target: IR8 (90/b/73 R336I/R562K/R740A; del795-1688/Arg336Iso/Arg562Lys/Arg740Ala) (human) (UniProt P00451); assay: optical biosensor; IR8 (30 nM) captured on immobilized Mab NMC-VIII/5, vWF added at 10 nM
vWF (human) [6] = target: vWF (human) (UniProt P04275); assay: biosensor (SPR), IR8 captured on immobilized anti-fVIII antibody; with ESH8
[7] = target: von Willebrand factor (vWF) (human) (UniProt P04275); assay: in vitro binding to vWF, method not named in the sentence (ELISA / affinity biosensor)
[8] = target: von Willebrand factor (vWF) (human) (UniProt P04275); assay: FVIII-vWF binding ELISA, anti-A2 domain trap, vWF from FVIII-deficient plasma, anti-vWF-HRP detection, with ESH8
[9] = target: von Willebrand factor (vWF) (human) (UniProt P04275); assay: FVIII-vWF binding ELISA, anti-A2 domain trap, vWF from FVIII-deficient plasma, anti-vWF-HRP detection, no ESH8
[10] = target: von Willebrand factor (vWF) (human) (UniProt P04275); assay: ELISA and affinity biosensor analysis
[11] = target: von Willebrand factor (vWF) (human) (UniProt P04275); assay: biosensor (SPR), IR8 captured on immobilized anti-fVIII antibody; without ESH8
[12] = target: von Willebrand factor (vWF) (human) (UniProt P04275); assay: summary of ELISA and biosensor results
vWF (human) [13] = target: vWF (human) (UniProt P04275); assay: biosensor (SPR), fVIII captured on immobilized anti-fVIII antibody

Chain of A1/A3-C1-C2 heterodimer of thrombin-cleaved FVIII (human) (P00451 20-391, chain 1 of 2): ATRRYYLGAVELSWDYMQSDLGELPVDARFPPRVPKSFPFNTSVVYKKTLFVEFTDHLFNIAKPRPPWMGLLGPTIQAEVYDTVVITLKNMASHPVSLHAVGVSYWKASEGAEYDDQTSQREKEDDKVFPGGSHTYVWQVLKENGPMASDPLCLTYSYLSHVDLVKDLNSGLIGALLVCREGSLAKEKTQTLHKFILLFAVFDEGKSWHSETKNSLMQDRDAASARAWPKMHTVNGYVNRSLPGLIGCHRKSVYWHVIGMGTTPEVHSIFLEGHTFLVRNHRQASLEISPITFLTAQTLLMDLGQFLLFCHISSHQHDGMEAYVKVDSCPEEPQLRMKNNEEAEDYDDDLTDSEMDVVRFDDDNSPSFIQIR
Chain of A1/A3-C1-C2 heterodimer of thrombin-cleaved FVIII (human) (P00451 1709-2351, chain 2 of 2): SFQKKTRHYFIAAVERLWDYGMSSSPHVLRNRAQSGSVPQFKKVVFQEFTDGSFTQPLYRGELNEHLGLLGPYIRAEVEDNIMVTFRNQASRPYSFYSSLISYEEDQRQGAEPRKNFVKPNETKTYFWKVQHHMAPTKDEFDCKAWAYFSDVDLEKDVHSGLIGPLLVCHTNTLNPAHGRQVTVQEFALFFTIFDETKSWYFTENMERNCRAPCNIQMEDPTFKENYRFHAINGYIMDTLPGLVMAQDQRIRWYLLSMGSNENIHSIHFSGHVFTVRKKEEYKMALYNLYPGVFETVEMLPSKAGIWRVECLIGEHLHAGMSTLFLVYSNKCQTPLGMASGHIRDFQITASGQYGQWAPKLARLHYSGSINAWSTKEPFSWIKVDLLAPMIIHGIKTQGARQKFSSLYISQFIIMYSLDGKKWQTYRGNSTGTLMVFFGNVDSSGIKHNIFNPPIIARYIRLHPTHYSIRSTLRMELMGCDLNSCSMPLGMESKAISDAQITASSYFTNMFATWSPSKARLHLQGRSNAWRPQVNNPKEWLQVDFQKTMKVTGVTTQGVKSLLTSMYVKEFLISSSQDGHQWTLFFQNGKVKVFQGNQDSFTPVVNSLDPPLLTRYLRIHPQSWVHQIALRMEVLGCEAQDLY
Chain of wild-type factor VIII (FVIII WT) (human) (P00451 20-2351 limits assumed): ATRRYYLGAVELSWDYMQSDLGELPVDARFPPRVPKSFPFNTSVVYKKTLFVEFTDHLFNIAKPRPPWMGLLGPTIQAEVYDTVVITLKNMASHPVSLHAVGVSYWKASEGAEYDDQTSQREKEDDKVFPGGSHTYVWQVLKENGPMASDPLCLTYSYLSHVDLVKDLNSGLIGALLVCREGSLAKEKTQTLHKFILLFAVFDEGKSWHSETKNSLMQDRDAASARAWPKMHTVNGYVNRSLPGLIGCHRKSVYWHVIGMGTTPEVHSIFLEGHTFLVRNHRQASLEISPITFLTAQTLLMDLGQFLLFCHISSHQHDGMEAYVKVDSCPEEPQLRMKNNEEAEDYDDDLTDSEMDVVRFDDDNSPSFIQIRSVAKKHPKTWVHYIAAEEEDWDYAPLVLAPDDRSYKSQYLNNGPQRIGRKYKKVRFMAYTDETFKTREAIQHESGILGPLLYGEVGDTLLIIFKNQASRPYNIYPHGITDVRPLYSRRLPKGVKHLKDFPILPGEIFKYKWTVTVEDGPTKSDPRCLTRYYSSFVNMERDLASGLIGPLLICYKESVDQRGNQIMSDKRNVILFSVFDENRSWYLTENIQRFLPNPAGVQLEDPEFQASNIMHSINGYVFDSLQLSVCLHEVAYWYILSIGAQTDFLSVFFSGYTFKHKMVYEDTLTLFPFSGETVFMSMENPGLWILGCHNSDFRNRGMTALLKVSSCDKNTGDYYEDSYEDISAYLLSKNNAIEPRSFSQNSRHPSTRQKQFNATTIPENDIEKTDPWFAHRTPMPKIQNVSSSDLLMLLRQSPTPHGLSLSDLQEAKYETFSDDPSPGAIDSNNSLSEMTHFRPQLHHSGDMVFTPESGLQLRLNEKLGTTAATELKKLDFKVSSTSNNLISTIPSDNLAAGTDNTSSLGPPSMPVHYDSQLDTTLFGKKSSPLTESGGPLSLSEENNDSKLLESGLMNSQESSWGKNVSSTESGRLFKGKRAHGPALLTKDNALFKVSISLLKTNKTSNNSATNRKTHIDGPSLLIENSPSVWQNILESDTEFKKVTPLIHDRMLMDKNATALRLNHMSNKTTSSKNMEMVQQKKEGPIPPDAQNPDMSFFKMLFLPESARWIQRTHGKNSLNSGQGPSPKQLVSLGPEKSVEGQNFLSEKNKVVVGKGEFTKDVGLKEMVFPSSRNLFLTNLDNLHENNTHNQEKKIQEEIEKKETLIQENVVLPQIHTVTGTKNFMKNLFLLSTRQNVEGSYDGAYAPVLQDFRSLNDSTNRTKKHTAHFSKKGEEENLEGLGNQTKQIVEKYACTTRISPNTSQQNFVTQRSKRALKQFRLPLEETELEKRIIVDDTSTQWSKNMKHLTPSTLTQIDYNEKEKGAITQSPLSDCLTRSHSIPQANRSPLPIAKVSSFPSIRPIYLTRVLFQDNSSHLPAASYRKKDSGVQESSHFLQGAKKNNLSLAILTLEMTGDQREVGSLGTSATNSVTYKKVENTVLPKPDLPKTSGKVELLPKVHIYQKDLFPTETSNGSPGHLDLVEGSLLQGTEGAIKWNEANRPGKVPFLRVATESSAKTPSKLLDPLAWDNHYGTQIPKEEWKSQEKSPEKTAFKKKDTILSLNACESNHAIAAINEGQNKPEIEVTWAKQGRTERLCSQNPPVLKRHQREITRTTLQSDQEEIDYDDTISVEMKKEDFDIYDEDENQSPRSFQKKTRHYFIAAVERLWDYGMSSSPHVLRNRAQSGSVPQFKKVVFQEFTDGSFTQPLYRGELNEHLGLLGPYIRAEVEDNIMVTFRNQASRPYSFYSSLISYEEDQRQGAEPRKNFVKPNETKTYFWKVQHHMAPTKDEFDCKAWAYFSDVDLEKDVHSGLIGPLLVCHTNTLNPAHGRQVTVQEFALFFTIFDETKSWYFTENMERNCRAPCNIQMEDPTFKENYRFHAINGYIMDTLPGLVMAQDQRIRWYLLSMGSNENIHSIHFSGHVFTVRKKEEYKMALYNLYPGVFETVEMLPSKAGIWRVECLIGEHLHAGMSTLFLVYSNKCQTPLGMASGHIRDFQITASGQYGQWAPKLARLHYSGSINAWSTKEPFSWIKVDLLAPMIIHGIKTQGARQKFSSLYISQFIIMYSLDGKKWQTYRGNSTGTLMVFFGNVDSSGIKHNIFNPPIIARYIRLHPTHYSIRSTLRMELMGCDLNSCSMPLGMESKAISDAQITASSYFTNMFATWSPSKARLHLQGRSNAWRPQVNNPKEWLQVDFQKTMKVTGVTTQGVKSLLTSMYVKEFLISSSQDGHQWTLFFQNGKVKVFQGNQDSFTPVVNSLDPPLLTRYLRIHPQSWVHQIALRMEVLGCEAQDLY

Substance: A2 subunit of thrombin-cleaved R698W B-domainless FVIII (from UniProt P00451 392-759)
fold increased rate of A2 subunit dissociation compared to a B domainless FVIII control [1]: 3 fold

Substance: ESH8, anti-light chain factor VIII mouse monoclonal antibody
% Of Initial Activity (APTT, 4 hour incubation at 37 C with FVIII-deficient plasma), + ESH8 (% of initial activity) [2]: 29
% Of Initial Activity (APTT, 4 hour incubation at 37 C with FVIII-deficient plasma), + ESH8 (% of initial activity) [3]: 120

Substance: von Willebrand factor (vWF) (from UniProt P04275 764-2813)
Kd [4]: 29.6 nM
koff [4]: 0.0042 s⁻¹
kon [5]: 140000 M⁻¹ s⁻¹

Substance: IR8 (90/b/73 R336I/R562K/R740A; del795-1688/Arg336Iso/Arg562Lys/Arg740Ala) (from UniProt P00451 20-759; P00451 1708-2351)
fold lower binding affinity compared to wild-type FVIII [9]: 10 fold
fold reduced affinity compared to rFVIII [10]: 20 fold
Kd [11]: 10.5 nM
fold lower affinity than FVIII WT [12]: 10 fold

Substance: pdfVIII
Kd (vWF (human) [13]): 0.31 nM

Substance: A2 subunit of thrombin-cleaved R698L B-domainless FVIII (from UniProt P00451 392-759)
fold increased rate of A2 subunit dissociation compared to a B domainless FVIII control [1]: 2 fold

Second part, the substance after the results:

koff (vWF (human) [6]): 0.0025 s⁻¹
Substance: IR8/ESH8 (from UniProt P00451 20-759; P00451 1708-2351)

Kd [7]: 0.3 nM
Substance: wild-type factor VIII (FVIII WT) (from UniProt P00451 20-2351)

fold lower binding affinity compared to wild-type FVIII [8]: 2 fold
Kd [7]: 1.3 nM
Substance: IR8/ESH8 complex (from UniProt P00451 20-759; P00451 1708-2351)

Reference: patent US20120190623A1
